According to patent publication US20260034253A1, “NECTIN-4 MINIPROTEIN CONJUGATES” (Aktis Oncology, Inc., priority 2022, published 2026):
Bridge positions count the residues as written; N and C are the ends. Ends that are not written are not given here. * marks the point of attachment. DOTA = O=C(O)CN1CCN(CC(=O)O)CCN(CC(=O)*)CCN(CC(=O)O)CC1; PEG4 = NCCOCCOCCOCCOCCC(=O)O

Key:
in vivo = conditions: female, athymic nude, mouse, tumor (HT1376 xenograft), total radioactivity
Protocol: In-111 labeling of miniproteins with MES buffer: In-111 was neutralized with 0.5 M MES buffer pH 5.5. This mixture was added to miniproteins prepared at 2 mg/mL in water with an equivalent amount of 0.5 M MES buffer pH 5.5, in a 1.5 mL Eppendorf vial and heated at 37° C. for 60 minutes. After the reaction, an HPLC sample was taken and an equivalent amount of 10 mM DTPA in 0.1 M ammonium acetate pH 5 was added and incubated for at least 15 minutes. The sample was then used for HPLC analysis.
In-111 labeling of miniproteins with Sodium Acetate buffer: In-111 was neutralized with 0.1 M sodium acetate buffer pH 5. […] After the reaction, an HPLC sample was taken and an equivalent amount of 10 mM DTPA in 0.1 M ammonium acetate pH 5 was added and incubated for at least 15 minutes. The sample was then used for HPLC analysis.
Purification of ^111In-miniproteins: Purification was done on two of the crude reaction mixtures mixed with 10 mM DTPA in 0.1 M ammonium acetate pH 5 and incubated for 15 minutes. A 3 kDa 0.5 mL Amicon filter was used for purification and the filter was spun at 15,000 RCF for 9 minutes. Saline was used as a formulation buffer.
Animals: Female athymic nude mice (6-8 weeks of age) were purchased from Charles River Laboratories and housed according to IACUC guidelines with ad libitum feeding. Biodistribution imaging experiments were performed on both null and tumor bearing athymic nude mice. Tumor xenograft models were generated by inoculating mice subcutaneously with 3×10^6 HT1376 cells, in 200 μL (50:50 PBS/Matrigel) in the right shoulder or right flank. Tumors were monitored for 14 days prior to SPECT/CT imaging dates. Mice with tumor volumes between 150 mm^3 and 250 mm^3 were selected for study inclusion and randomized to treatment arms. An excess of 60% of required imaging study mice were inoculated with tumor cells to ensure enough mice with appropriate tumor ranges were generated.
Animal grouping and Treatment: Animals were monitored for body weight bi-weekly and at the time of experimentation, grouped into groups of n=3. Animals were administered test-agents (TAs) that were prepared as described above. Animals received one of two standard injected dose activates and mass dose injections, depending at which site imaging studies were performed. • Site-1: 350 μCi of activity (^111In) at approximately […] peptide per mouse. • Site-2: 30MBq ([…]) of activity (^111In) at approximately 1 nM ([…]) of total peptide per mouse.
Animal imaging: Animals were sedated using isoflurane gas and imaged in a 3 bed hotel using a NanoScan SPECT/CT scanner. Animals were imaged at timepoints between 10 mins and 72 h post-dosing via SPECT scan, followed by CT scans. Details of the image process and analysis are described in Example 11.
Image Processing: Images were generated as SPECT/CT pair with the SPECT reported in units of activity. Namely, the values assigned to the voxels (volume elements) comprising the SPECT images were in units of μCi. SPECT images were co-registered to the CT scan for anatomical reference, resampled to 0.2 mm^3 voxels, masked to remove the CT background, and cropped to a uniform size prior to analysis.
Estimating tissue uptake: Regions of interest (ROIs) were defined using VivoQuant software. The kidneys and bladder were segmented as fixed volume phantoms and registered using the CT for anatomical reference. Two fixed volume spheres were used to create the liver ROI. Spheres were placed at appropriate anatomical locations based on CT and SPECT signal. Group and individual master spreadsheets were generated which included the volume, activity, and concentration (Activity/Volume) at each time point for each ROI generated. Additionally, plots of activity were generated using Matplotlib based python tools to highlight trends in the data.

mouse Nectin-4 = biological target: T1, mouse Nectin-4 (Mus musculus, UniProt Q8R007); assay: Surface plasmon resonance (Biacore T200) binding to mouse Nectin-4; conditions: 1:1 binding model, twenty-five degrees Celsius
T1 sequence (Q8R007 31-508): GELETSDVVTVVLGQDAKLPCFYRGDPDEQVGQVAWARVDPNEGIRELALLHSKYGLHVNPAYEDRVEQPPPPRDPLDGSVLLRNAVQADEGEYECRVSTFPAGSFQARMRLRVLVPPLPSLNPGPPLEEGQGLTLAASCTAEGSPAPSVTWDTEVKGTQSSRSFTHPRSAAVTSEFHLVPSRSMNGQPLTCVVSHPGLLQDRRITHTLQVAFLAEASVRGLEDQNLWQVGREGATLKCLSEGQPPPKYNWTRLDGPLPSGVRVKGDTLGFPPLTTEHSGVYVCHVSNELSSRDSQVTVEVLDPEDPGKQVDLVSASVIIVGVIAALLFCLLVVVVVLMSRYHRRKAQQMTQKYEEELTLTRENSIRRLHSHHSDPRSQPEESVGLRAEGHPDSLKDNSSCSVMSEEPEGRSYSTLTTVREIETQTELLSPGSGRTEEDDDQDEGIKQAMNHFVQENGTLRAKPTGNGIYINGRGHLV
Protocol: (§1) Peptide binding affinity to the target protein was measured by SPR using a Biacore T200 instrument. The target protein was covalently coupled to a Biacore chip surface using free amine-coupling chemistry (NHS/EDC) and all uncoupled sites were blocked with ethanolamine. Free peptides were flowed over the target protein surface in increasing concentrations to measure association (KA) and dissociation ([…]) to calculate the equilibrium dissociation constant (KD) using an appropriate binding model (see, e.g., Nikolas Stroth, J Biol Methods. 2016; 3 (1)).
(§2) In all figures (FIGS. 1A, 1B, 2A, and 2B), lines on graphs are labeled from top to bottom, beginning with letter “a,” and the corresponding concentration is noted to the right of the figure, next to the letter designating each line.
Surface plasmon resonance (SPR) analyses were performed using Biacore T200 (GE Healthcare). Target protein (“ligand”) was immobilized to a CM5 Series S sensor chip (Cytiva) using amine-coupling chemistry. Running buffer was 0.05% Surfactant P20 in HEPES buffered saline (HBS-P), pH 7.4 (Cytiva). Immobilization was performed at 25° C. Carboxyl groups in each flow cell were activated using a 1:1 mixture of 0.4 M 1-ethyl-3-(3-dimethylaminopropyl)-carbodiimide in water (EDC) and 0.1 M N-hydroxysuccinimide in water (NHS) for 7 minutes. The ligand was prepared in 10 mM Sodium acetate pH 5 (Cytiva). Pulsatile injections were made to target a specific immobilization level. Any remaining amine-reactive esters on the chip surface were blocked with a 7-minute injection of 1 M ethanolamine, pH 8.5. […]
Increase in signal (RU) is proportional to an increase in binding events between the analyte and ligand surface. The injection was then stopped, and dissociation was measured. […] Measured association (ka, 1/M^s−1) and dissociation (kd, s^−1) were fit to a 1:1 binding model to calculate an equilibrium dissociation constant, KD(M) for each analyte. […]
In this example, affinity for mouse Nectin-4 (FIG. 3A) and human Nectin-4 (FIG. 3B) were measured using a 1:1 binding model at twenty-five degrees Celsius. […]

human Nectin-4 = biological target: T2, human Nectin-4 (Homo sapiens, UniProt Q96NY8); assay: Surface plasmon resonance (Biacore T200) binding to human Nectin-4; conditions: human Nectin-4, 1:1 binding model, twenty-five degrees Celsius
T2 sequence (Q96NY8 32-510): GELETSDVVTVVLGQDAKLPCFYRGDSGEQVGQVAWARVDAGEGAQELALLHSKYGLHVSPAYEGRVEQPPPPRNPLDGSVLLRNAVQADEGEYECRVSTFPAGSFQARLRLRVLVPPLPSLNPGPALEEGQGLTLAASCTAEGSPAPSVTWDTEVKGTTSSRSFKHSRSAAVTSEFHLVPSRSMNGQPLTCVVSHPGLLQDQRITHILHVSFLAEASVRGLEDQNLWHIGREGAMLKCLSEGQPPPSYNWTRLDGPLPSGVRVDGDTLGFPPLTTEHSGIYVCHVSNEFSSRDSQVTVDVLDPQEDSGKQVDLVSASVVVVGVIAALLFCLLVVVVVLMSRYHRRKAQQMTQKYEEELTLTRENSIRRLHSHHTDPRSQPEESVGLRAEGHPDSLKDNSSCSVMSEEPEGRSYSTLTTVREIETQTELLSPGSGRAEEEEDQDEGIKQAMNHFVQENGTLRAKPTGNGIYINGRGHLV
Protocol: as §1, §2
Surface plasmon resonance (SPR) analyses were performed using Biacore T200 (GE Healthcare). Target protein (“ligand”) was immobilized to a CM5 Series S sensor chip (Cytiva) using amine-coupling chemistry. Running buffer was 0.05% Surfactant P20 in HEPES buffered saline (HBS-P), pH 7.4 (Cytiva). Immobilization was performed at 25° C. Carboxyl groups in each flow cell were activated using a 1:1 mixture of 0.4 M 1-ethyl-3-(3-dimethylaminopropyl)-carbodiimide in water (EDC) and 0.1 M N-hydroxysuccinimide in water (NHS) for 7 minutes. The ligand was prepared in 10 mM Sodium acetate pH 5 (Cytiva). Pulsatile injections were made to target a specific immobilization level. Any remaining amine-reactive esters on the chip surface were blocked with a 7-minute injection of 1 M ethanolamine, pH 8.5. Three 10-second pulses of 50 mM Sodium hydroxide were then made to remove any unbound ligand. Reference cells were modified using amine coupling chemistry, omitting ligand injection.
Increase in signal (RU) is proportional to an increase in binding events between the analyte and ligand surface. The injection was then stopped, and dissociation was measured. The resulting sensorgram has reference surface and blank injection subtracted prior to curve fitting. Measured association (ka, 1/M^s−1) and dissociation (kd, s^−1) were fit to a 1:1 binding model to calculate an equilibrium dissociation constant, KD(M) for each analyte. Equilibrium binding constants (KD) and binding inhibition constants (Ki) estimated from surface plasmon resonance (SPR) or DELFIA® binding assays for exemplary compounds as set forth in Table 2A.
In this example, affinity for mouse Nectin-4 (FIG. 3A) and human Nectin-4 (FIG. 3B) were measured using a 1:1 binding model at twenty-five degrees Celsius. In both of FIGS. 3A and 3B, lines on graphs were labeled from top to bottom, beginning with letter a, and the corresponding concentration was noted to the right of the figure.

Row | Substance | tissue uptake at 4 h (in vivo) | kd (dissociation) (mouse Nectin-4) | kd (dissociation) (human Nectin-4)
1 | {DOTA-PEG4}-CEYDEEFFTALSRLRGGDICYYIQQAFQYLPGLCIEEILDNLGCS (disulfide 1-34, 20-44) [Compound C133] | 1.29 %ID/g |  | 
2 | {DOTA-PEG4}-CEYDEEFFAGLKRLRGGDICYYIKKKFDKVPDLCIEEILDKLGC-OH (disulfide 1-34, 20-44) [Compound C91] |  | 0.02817 s⁻¹ | 0.02966 s⁻¹
3 | Ac-CEYDEEFFAGLKRLRGGDICYYIKKKFDKVPDLCIEEILDKLGC-OH (disulfide 1-34, 20-44) [Compound C9] |  | 0.02134 s⁻¹ | 0.02271 s⁻¹
4 | {DOTA-PEG4}-CEYDEEFFTALKRLRGGDICYYIQAKFQYLPKLCIEEILDNLGCS (disulfide 1-34, 20-44) [Compound C117] | 2.29 %ID/g |  | 
5 | {DOTA-PEG4}-CEYDEEFFTALKRLRGGDICYYIQKAFQYLPGLCIEEILDNLGCS (disulfide 1-34, 20-44) [Compound C121] | 2.03 %ID/g |  | 
6 | {DOTA-PEG4}-CEYDEQFFTALARLRGGDICYYIQEQFATVPGLCIEEILDQLGCS (disulfide 1-34, 20-44) [Compound C129] | 1.77 %ID/g |  | 
7 | {DOTA-PEG4}-CEYDEQFFTALKALRGGDICYYIQASFNYLPDLCIEEILDNLGCS (disulfide 1-34, 20-44) [Compound C113] | 1.65 %ID/g |  | 
